Source: patent US20250383346A1

Biological target: Her2 extracellular domain antigen (ACRO Biosystems) (UniProt P04626)
Test: SPR (Carterra LSA), Fab captured from lysate on Fab Kappa capture reagent, Her2 ECD in solution

five standards of trastuzumab Fab
Kd: 100 nM
